Assay results: patent publication US20070009927A1 (published 2007)

Biological target: T1, Sizn1 bait (full-length Sizn1 coding sequence in pGBKT7) (mouse, UniProt Q9CZA5 1-402)
T1 construct: Yeast two-hybrid bait in AH109 cells; also called Sizn bait construct; Sizn1 as a bait; not shown: fusion partner supplied by vector pGBKT7 (Clontech)
Experiment: yeast two-hybrid screen of an E11 mouse library

T1 sequence (Q9CZA5 whole entry, the tested form may be a part): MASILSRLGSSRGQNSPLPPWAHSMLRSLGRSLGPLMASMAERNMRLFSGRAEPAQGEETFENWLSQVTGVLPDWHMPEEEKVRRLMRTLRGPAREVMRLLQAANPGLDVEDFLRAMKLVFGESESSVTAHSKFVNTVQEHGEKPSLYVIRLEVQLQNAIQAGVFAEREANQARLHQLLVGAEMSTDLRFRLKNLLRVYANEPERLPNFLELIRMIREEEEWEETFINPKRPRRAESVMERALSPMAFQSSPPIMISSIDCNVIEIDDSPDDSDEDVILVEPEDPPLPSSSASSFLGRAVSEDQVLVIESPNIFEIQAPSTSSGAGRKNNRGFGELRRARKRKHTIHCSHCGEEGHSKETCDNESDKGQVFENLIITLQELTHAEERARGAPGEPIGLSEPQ

B1: amino acids 382-495 of Smad6 corresponding to the MH2 domain of Smad6 (other, mouse, UniProt O35182 382-495, looked up)
chain: RRTRSKIGFGILLSKEPDGVWAYNRGEHPIFVNSPTLDAPGGRALVVRKVPPGYSIKVFDFERSGLLQHADAAHGPYDPHSVRISFAKGWGPCYSRQFITSCPCWLEILLNNHR
notes: Positive prey clone of the yeast two-hybrid screen; also called Smad6 MH2 domain; not shown: library fusion partner of the Matchmaker3 two-hybrid prey vector; not described
B1: binds.
